± gives the uncertainty stated by the source.

This data set can be described thus: amyloid nucleation score (Sup35N fusion, yeast selection) (log enrichment); library NNK3; higher = more nucleation; inactive = no reads after selection. An outline of the steps: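 After 24 hours of induction with 100 μM copper sulfate, psi-negative yeast expressing peptides of 20 random codons fused to Sup35N were grown for 7 days at 30°C on medium lacking adenine and uracil. Input and output plasmid inserts were sequenced with Illumina, and sequences with under 100 input reads were discarded. Scores for nucleation are the DiMSum log enrichment of output over input reads, centred on the mode score of non-aggregating sequences.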

In the case of YKYVFHPIFFDQGT, the amyloid nucleation score result was “inactive”.

Turning to RMHDSCFLYGISEDRDSLGN, the amyloid nucleation score result is “inactive”.

The substance MRICFFDSIQHYQKNQD had an amyloid nucleation score of 2.1 ± 0.071. With PNRLTPFQRSTSSHLQNVGQ, the amyloid nucleation score entry was “inactive”. To RIYQRSFIWCASMESGSGPL belongs 0.747 ± 0.2. To TCCSVLLIKVSSNEGD belongs 2.6 ± 0.078; to IWPWYCKHNIFVKYHRLVER, “inactive”. Turning to MVLCSKGIVNSARLAFKKSR, the amyloid nucleation score result was “inactive”. Regarding LFEWMRCMTVFMVGAAYAAT, the amyloid nucleation score result was “inactive”. Under TQRVGERGIIMYHPWIGYYV stands 0.189 ± 0.26; under VSLVWDMHWHSYRVSSELCR, “inactive”; under FRRYRRCDLGLLSSMRPSAH, “inactive”. Under FSPCISDCGVDESIKVLRKM stands “inactive”; under VRGGHSTTGI, “inactive”; under VVGNVTGY, “inactive”. To SDIVCVKLEYT belongs “inactive”; to YGFCSC, -0.033 ± 0.81. ANVARFMYSFVKQALSLWVR: the amyloid nucleation score entry was “inactive”. Under RDGFN stands “inactive”; under VSSRECMLRPLPDTKTRLAA, “inactive”.

For TYLLFGSTLGLSQWVYLDVE, the amyloid nucleation score result was “inactive”. Consider STGRRPTWATQRLWLWRQQL, for which the amyloid nucleation score was -0.091 ± 0.87. For ASCPLSKKWMELGKCAGPTH, the amyloid nucleation score result is “inactive”. Under MEINAVPD stands “inactive”; under RTIQFPS, “inactive”. Regarding LIYYCEHHARLSVLLDESSA, the amyloid nucleation score result was “inactive”. As for CWTAPLSKFLRVWVTIPYNL, the amyloid nucleation score result is “inactive”.

Consider FIRFWASVSTNCRLPFLLNR, for which the amyloid nucleation score result is “inactive”. Under VLKASNFV stands “inactive”. To TLPMYTRCTTFAHLSSS belongs “inactive”; to RNYFMVLGRKYVFLFFWMMM, “inactive”; to SHVNRVRSLYVGE, “inactive”. To IFCAKSIIGIPGTDPRCRPD belongs 1.5 ± 0.13; to FSCDHLGWLVVSVCSGLRWL, “inactive”; to HMIKVIVLCMMRFFIKSKNS, “inactive”. Take EKLIIELLCTT: the amyloid nucleation score result is “inactive”.

Consider LGDALAEVNQDHADSGYRVT, for which the amyloid nucleation score entry is “inactive”.

Turning to VFLLCSLILWRAQLQLVCSL, the amyloid nucleation score result was “inactive”. Under WDLRSCCDNVSTFEL stands “inactive”; under NELVLKYRSTVVLVKLW, “inactive”. Under FVLRTNWGGISVYIYDVCSC stands -0.238 ± 1.1. Under LFITSHREGDWWLSTVRIHF stands 0.367 ± 0.27; under FNALSWSVDFLWYARTTCVD, “inactive”; under EISTVLNLHVRRIAGRFVMK, “inactive”. With HGVPSLLICWRVLNRSIFMV, the amyloid nucleation score entry is “inactive”. Regarding WLKWFLRTCNMVKIFASPFF, the amyloid nucleation score entry is “inactive”. Under TMSIFDPVE stands 1.09 ± 0.11; under TSNFCPFTVQN, -0.477 ± 0.8; under CIFFRVGSFLNYFYASAWHS, “inactive”. For the substance LGNSPVHST, the amyloid nucleation score result was “inactive”. Under YSPTAN stands “inactive”. Under RSQNF stands “inactive”. Under FSLDVDDGVFS stands “inactive”. For the substance VGNYINVANMYSWGVIIRND, the amyloid nucleation score amounted to 2.39 ± 0.072. Under PLYQSYYHLEPSCDWCYSSR stands -0.144 ± 0.28; under SFRMSTSCWSSGALMYRLYR, “inactive”; under SKYKVCFTRSFF, “inactive”.

In the case of ITMCRDFLLAPWPCLLQPSH, the amyloid nucleation score result was “inactive”. As to HSMALITSSRVLVRVLTIMR, the amyloid nucleation score entry was “inactive”. Take IDLVLFSTCVNALVVESFGG: the amyloid nucleation score entry was “inactive”. For YFINSFCVAVWIICHQGVCA, the amyloid nucleation score entry was “inactive”. To RKFGWIRVAWCSKRIVYYSK belongs -0.324 ± 0.62; to HYGEFHKTNCARYRYFI, “inactive”. In turn, TYMSNNTMGEFFLNLRVNLY came in with an amyloid nucleation score of 2.44 ± 0.068. Take SLWIIERCILDHQYGSFRRQ: the amyloid nucleation score was found to be 1.65 ± 0.1. To CKFEMSEIDFVYASSIFR belongs “inactive”. To TYKVFL belongs “inactive”; to LWANNGSCFMCEYSHDGGKN, “inactive”. Under FSLRVGMKVHISKIRLGCCK stands “inactive”. For RFGAGILRSSNQDSGFRVTG, the amyloid nucleation score entry is “inactive”. To NCLSPTCRSVL belongs 2.07 ± 0.097. To KAPVVWYDMEARQKCVRGGG belongs “inactive”; to KRVRGLALTQIY, 0.159 ± 0.45; to YSISKAFPMLSRLDMDMFGA, “inactive”.

In the case of RVRCDWCFGRGVCMTAIRQD, the amyloid nucleation score is -0.147 ± 1.1.

Take CNIEGYNETNVCECWNMELL: the amyloid nucleation score result is “inactive”. Under GYKATQLLSGGPYNLCVGGT stands “inactive”. Under ERGGSTFCSTYFTVLKHRSG stands “inactive”; under IKCDLRSSVAWDLSVILYSF, “inactive”; under KGETEPYKDSMLQKLTGQLQ, “inactive”. Turning to KYLAFLQLCGAPMYLWTPPI, the amyloid nucleation score is 0.757 ± 0.3. To FFSCGDKLSFF belongs “inactive”; to CPKALRIIGRSYCRTSEVTS, “inactive”; to TSSLWHWMCLEITLPSRSCK, “inactive”.

SRRYFYIDIRYRNIKP: the amyloid nucleation score result is “inactive”.

Take NKNHYFRVF: the amyloid nucleation score entry is “inactive”. For QCVCLS, the amyloid nucleation score entry is “inactive”.

In turn, TFFFTVLG gave an amyloid nucleation score of 1.55 ± 0.12.

As to YRAYVYEDTFWWAWYQFILL, the amyloid nucleation score result is “inactive”.

Substance SPYNPHAFVTYSFCVYKD had an amyloid nucleation score of 1.88 ± 0.098. To YLVSY belongs “inactive”; to YWLDLYSKCLSSSVEISLGI, “inactive”; to DSDVWEPCFELEESKL, “inactive”. Under EVPNFYNLPSWSA stands “inactive”; under VQFLRFQVHELFSRPFIA, “inactive”. With AAEPEVDNSYTAGDSGTRGT, the amyloid nucleation score result is “inactive”.

As to YYQMRYCQWDAIQVENWVRR, the amyloid nucleation score entry is “inactive”. Under CAVYCNLNDVIGVFTILQRS stands “inactive”; under NRSCRDFRYY, “inactive”; under SKLCELLSLQTAVAYMMSGA, “inactive”. Under FLLSVMRELSKYYYIIFSTS stands “inactive”; under DTDWGRMWQGGSVYGYAFCA, “inactive”.

Regarding SSYLGECVKRPDPPRISKTL, the amyloid nucleation score entry is “inactive”. Under SVGFVHFVNTGDQKYERRVD stands “inactive”; under DPTILSKVMLMEDTVKAREL, “inactive”.

Consider YEDQRSLRFCR, for which the amyloid nucleation score result was “inactive”. Under YPLYVHRCLIMTFMLSLWPR stands “inactive”.

Regarding SDGFLSADYRFFMMLRYRLE, the amyloid nucleation score result is “inactive”. On to EMEASRG, for which the amyloid nucleation score result is “inactive”.

On to CVEVLWERPSGTRAGMVGLL, for which the amyloid nucleation score is -0.792 ± 1.4. Under DLDFFGGCLFFHQGTIFYDG stands “inactive”; under LYVHFSILCTFGWSVPNQEG, “inactive”; under IGYVMFGTSSSAFRITYISK, “inactive”. Under MDAISFQRDMMFNGGFFCAM stands “inactive”; under ARWTMRAMLDWSIALSDHWV, “inactive”; under FFWLMDAPHPRRHVDERQLI, “inactive”.

Regarding MYVWLRCKLIGNSFLRVKCS, the amyloid nucleation score entry is “inactive”. To DAFIGYHYLGGLISGIWSSR belongs 0.693 ± 0.097. Under ILLALN stands 0.03 ± 0.88; under WSETNTFS, “inactive”. To TVNLDQMYYMVFCVFRSMHD belongs 0.498 ± 0.43.

Regarding FLDSSVW, the amyloid nucleation score entry is “inactive”. To QALYDWILWNHWTTKVGPVA belongs “inactive”. KIGGVYVLVS: the amyloid nucleation score entry is “inactive”. To AVCYRLWFKM belongs “inactive”.

For the substance AHGTMGGNYGRNVQLDDRLN, the amyloid nucleation score entry was “inactive”.

On to RYYCMYSSGEIRCSVSWGVW, for which the amyloid nucleation score entry is “inactive”. To QTNIWYSGPIGSYHC belongs “inactive”; to FGTGDMCKQCRHDVVRHSCL, “inactive”; to CNFNLILLMDGIKGSFL, 2.35 ± 0.065.

Take KVILPWKLWADGWRDY: the amyloid nucleation score result is “inactive”.

The values are drawn from the supplement of paper PMC12042874.
